One block for each binder: values may come before it.
What was measured:
[1] = biological target: FAU (human, UniProt P62861 75-133); assay: co-IP, anti-FLAG, lysate of cells with N-FLAG B3GNT2; mass spectrometry
[2] = biological target: T1, SPTAN1 (human, UniProt Q13813-2 1-2477, limits assumed); assay: as above
T1 construct: also called NP_001123910.1 (+10)

[3] = biological target: T2, PRRC2A (human, UniProt P48634 1-2157); assay: as above
T2 construct: also called NP_004629.3 (+1)

[4] = biological target: T3, NUFIP2 (human, UniProt Q7Z417 1-695); assay: as above
T3 construct: also called NP_065823.1
T3 sequence (looked up): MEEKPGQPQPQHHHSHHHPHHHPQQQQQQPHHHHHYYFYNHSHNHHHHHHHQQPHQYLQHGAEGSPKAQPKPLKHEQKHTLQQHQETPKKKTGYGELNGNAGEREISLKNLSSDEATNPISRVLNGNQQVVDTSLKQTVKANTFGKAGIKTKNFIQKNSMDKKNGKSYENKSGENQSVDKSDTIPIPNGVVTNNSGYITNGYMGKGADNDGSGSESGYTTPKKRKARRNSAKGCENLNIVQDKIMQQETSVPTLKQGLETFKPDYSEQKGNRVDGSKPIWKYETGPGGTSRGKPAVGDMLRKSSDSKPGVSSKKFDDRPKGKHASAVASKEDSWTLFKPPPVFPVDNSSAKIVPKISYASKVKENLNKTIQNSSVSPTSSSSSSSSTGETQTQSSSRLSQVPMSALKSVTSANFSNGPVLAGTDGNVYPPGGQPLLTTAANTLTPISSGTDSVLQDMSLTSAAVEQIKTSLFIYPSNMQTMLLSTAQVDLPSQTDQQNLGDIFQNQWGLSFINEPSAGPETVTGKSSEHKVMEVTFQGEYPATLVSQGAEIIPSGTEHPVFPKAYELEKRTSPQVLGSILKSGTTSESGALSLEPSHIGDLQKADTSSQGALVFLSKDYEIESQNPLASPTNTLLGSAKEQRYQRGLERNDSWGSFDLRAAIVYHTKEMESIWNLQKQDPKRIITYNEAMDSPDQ

[5] = biological target: SLIRP (UniProt Q9GZT3 1-109); assay: co-IP with anti-FLAG, mass spectrometry; N-FLAG B3GNT2
Procedure: (§1) Cells were plated in 10-cm cell culture dishes and grown to 60-80% confluency. For each condition, two biological replicates were harvested for co-IP. Cells were washed with PBS and 4 mL of lysis buffer (20 mM HEPES, 1% Triton X-100, 150 mM NaCl, 1 mM EDTA, and 10% glycerol) containing protease inhibitor cocktail was added. Cells were scraped and lysate was incubated at 4° C. under rotary agitation for 1 h. Lysate was centrifuged at 14,000×g for 10 min at 4° C. Supernatant was transferred to a new tube and an aliquot was taken as the input. […] For Western blots, 10 μg/mL Chicken Anti-FLAG (Aves labs ET-DY100) and IgY control (R&D Systems AB-101-C) antibodies were biotinylated (Thermo Fisher Scientific 90407) and added to the respective conditions. Lysates with antibodies were incubated at 4° C. under rotary agitation overnight. For each mL of lysate, 50 μL of Pierce Protein A/G Magnetic Beads (Mass spectrometry; Thermo Fisher Scientific 88803) or Pierce Streptavidin Magnetic Beads (Western blot; Thermo Fisher Scientific 88817) was washed twice with lysis buffer. Lysates with antibodies were added to the beads and incubated at 4° C. under rotary agitation for 4 h. Beads were washed with lysis buffer 3 times and resuspended in lysis buffer for storage.
(§2) Magnetic beads were resuspended in 100 mM Tris pH 7.8, reduced, alkylated and digested with trypsin at 37° ° C. overnight. This solution was subjected to solid phase extraction to concentrate the peptides and remove unwanted reagents followed by injection onto a Shimadzu HPLC with fraction collector. Eight fractions were collected and after concentration were injected on a Waters NanoAcquity HPLC equipped with a self-packed Aeris 3 μm C18 analytical column 0.075 mm by 20 cm, (Phenomenex). Peptides were eluted using standard reverse-phase gradients. The effluent from the column was analyzed using a Thermo Orbitrap Elite mass spectrometer (nanospray configuration) operated in a data dependent manner for 54 minutes. The resulting fragmentation spectra were correlated against the known database using Proteome Discover 1.4 (Thermo Fisher Scientific).

[6] = biological target: T4, LYZ (UniProt P61626 19-148); assay: as above
T4 construct: Protein found in the co-IP by mass spectrometry; also called NP_000230.1
T4 sequence (looked up): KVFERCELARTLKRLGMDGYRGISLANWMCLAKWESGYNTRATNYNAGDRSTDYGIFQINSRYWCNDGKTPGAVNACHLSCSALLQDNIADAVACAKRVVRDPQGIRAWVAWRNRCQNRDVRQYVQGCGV
Procedure: as §1, §2

[7] = biological target: RPS17 (UniProt P08708 2-135); assay: as above
Procedure: as §1, §2

[8] = biological target: RPL10A (UniProt P62906 2-217); assay: as above
Procedure: as §1, §2

[9] = biological target: T5, CTSD (UniProt P07339 65-412, limits assumed); assay: as above
T5 construct: Endogenous protein found in the co-IP by mass spectrometry; also called NP_001900.1
T5 sequence (P07339 65-412 limits assumed): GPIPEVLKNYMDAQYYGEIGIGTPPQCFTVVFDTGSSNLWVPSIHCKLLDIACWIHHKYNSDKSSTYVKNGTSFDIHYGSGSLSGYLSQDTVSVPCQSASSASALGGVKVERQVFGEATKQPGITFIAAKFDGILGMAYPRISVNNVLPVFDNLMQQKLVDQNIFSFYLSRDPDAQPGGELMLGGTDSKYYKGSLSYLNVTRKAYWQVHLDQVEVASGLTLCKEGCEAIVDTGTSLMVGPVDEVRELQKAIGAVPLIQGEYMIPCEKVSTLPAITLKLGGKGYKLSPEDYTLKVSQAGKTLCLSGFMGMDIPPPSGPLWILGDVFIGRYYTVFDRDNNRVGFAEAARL
Procedure: as §1, §2

[10] = biological target: RPL11 (UniProt P62913 2-177); assay: as above
Procedure: as §1, §2

[11] = biological target: RPS15A (UniProt P62244 2-130); assay: as above
Procedure: as §1, §2

[12] = biological target: RPL31 (UniProt P62899 1-125); assay: as above
Procedure: as §1, §2

T2 sequence (P48634 whole entry): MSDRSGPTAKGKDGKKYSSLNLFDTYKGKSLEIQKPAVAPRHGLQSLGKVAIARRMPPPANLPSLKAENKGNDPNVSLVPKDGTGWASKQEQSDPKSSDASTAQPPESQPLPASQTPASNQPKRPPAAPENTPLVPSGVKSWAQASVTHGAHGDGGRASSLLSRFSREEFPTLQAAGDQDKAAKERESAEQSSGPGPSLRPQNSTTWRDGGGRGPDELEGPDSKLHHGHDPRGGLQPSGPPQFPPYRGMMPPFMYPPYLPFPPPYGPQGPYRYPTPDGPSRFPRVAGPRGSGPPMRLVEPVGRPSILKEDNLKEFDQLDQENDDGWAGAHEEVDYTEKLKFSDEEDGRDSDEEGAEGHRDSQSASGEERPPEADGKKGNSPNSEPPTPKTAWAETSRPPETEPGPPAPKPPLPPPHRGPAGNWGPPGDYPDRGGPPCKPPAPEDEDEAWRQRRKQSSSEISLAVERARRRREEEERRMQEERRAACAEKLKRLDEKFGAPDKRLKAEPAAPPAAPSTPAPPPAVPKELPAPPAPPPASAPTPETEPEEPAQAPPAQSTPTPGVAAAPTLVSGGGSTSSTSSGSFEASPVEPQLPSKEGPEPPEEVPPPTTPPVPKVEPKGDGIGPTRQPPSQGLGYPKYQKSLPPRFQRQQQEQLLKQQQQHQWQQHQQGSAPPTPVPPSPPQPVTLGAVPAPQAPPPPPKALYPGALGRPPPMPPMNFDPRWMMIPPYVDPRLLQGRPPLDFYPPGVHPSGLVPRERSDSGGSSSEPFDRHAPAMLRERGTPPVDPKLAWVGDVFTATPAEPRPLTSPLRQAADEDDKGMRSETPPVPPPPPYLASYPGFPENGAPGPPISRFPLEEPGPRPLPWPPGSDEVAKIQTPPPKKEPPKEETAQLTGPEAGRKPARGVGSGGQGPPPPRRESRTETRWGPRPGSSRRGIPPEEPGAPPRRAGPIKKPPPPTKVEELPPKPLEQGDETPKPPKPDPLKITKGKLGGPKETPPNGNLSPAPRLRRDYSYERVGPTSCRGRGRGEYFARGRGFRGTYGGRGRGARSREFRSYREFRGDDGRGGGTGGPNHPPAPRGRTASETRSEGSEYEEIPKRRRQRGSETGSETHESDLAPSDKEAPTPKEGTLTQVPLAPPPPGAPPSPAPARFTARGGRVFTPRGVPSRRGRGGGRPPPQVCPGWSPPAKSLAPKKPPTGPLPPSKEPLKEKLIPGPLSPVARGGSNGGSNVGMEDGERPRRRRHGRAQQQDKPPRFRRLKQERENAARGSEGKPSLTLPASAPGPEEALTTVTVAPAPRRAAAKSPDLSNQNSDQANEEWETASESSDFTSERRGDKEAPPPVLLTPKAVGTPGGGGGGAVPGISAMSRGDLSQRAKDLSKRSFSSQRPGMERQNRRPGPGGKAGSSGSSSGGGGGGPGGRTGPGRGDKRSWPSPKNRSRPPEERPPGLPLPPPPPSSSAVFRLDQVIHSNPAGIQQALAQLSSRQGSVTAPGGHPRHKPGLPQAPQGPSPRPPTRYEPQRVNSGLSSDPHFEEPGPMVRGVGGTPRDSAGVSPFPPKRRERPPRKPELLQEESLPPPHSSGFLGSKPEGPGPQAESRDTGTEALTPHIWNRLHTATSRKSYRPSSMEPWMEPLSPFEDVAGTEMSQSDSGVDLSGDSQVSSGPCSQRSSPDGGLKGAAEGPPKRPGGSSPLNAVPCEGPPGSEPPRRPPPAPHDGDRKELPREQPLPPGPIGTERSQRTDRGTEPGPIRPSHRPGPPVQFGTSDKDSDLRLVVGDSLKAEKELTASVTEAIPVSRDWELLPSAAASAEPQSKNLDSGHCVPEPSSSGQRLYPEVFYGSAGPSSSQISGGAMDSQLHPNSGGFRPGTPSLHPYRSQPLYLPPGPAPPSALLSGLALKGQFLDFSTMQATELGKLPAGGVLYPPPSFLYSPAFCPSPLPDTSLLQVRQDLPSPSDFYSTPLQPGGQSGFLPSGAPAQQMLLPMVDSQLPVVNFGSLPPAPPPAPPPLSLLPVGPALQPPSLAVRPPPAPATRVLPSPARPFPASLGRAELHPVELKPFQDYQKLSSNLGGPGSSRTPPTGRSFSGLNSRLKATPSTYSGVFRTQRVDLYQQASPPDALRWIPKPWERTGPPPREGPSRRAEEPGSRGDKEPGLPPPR

co-IP mass spectrometry count [1]: 5 | co-IP mass spectrometry count [2]: 0 | co-IP mass spectrometry count [3]: 2 | co-IP mass spectrometry count [4]: 3
B1: N-terminal FLAG tagged B3GNT2 (enzyme, human, UniProt Q9NY97 1-397, looked up)
chain: MSVGRRRIKLLGILMMANVFIYFIMEVSKSSSQEKNGKGEVIIPKEKFWKISTPPEAYWNREQEKLNRQYNPILSMLTNQTGEAGRLSNISHLNYCEPDLRVTSVVTGFNNLPDRFKDFLLYLRCRNYSLLIDQPDKCAKKPFLLLAIKSLTPHFARRQAIRESWGQESNAGNQTVVRVFLLGQTPPEDNHPDLSDMLKFESEKHQDILMWNYRDTFFNLSLKEVLFLRWVSTSCPDTEFVFKGDDDVFVNTHHILNYLNSLSKTKAKDLFIGDVIHNAGPHRDKKLKYYIPEVVYSGLYPPYAGGGGFLYSGHLALRLYHITDQVHLYPIDDVYTGMCLQKLGLVPEKHKGFRTFDIEEKNKNNICSYVDLMLVHSRKPQEMIDIWSQLQSAHLKC
notes: Overexpressed in cells and pulled down from the lysate with mouse anti-FLAG antibody; also called N-FLAG B3GNT2; N-term FLAG; not shown: N-terminal FLAG tag

co-IP mass spectrometry count [5]: 0 | co-IP mass spectrometry count [6]: 3 | co-IP mass spectrometry count [7]: 5 | co-IP mass spectrometry count [8]: 6 | co-IP mass spectrometry count [9]: 3 | co-IP mass spectrometry count [10]: 5 | co-IP mass spectrometry count [11]: 3 | co-IP mass spectrometry count [12]: 0
B2: N-terminal FLAG tagged B3GNT2 (enzyme, human, UniProt Q9NY97 1-397, looked up)
chain: B1 chain
notes: FLAG-tagged ORF overexpressed in cells; bait of the anti-FLAG co-IP; also called N-FLAG B3GNT2; N-term FLAG; not shown: FLAG tag at the N-terminus

— patent publication US20240261333A1 (published 2024)
